In patent US20220177587A1, “METHODS AND USES OF VARIANT CD80 FUSION PROTEINS AND RELATED CONSTRUCTS” (Alpine Immune Sciences, Inc., priority 2018, published 2022):

Key:
human PD-L1 (human) [1] = molecular target: human PD-L1 (human) (UniProt Q9NZQ7); assay: flow cytometry, CHO cells expressing huPD-L1
Target sequence in this assay (Q9NZQ7 19-290): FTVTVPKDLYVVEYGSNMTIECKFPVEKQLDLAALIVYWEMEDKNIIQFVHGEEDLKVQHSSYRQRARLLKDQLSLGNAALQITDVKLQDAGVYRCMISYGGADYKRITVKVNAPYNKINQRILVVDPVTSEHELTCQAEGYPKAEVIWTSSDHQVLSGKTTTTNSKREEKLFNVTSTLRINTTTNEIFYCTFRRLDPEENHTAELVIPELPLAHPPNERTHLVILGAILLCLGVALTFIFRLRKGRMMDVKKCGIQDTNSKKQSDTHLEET

human CTLA-4 (human) [2] = molecular target: human CTLA-4 (human) (UniProt P16410); assay: flow cytometry, CHO cells expressing huCTLA4, vs WT CD80 ECD-Fc (R&D)
CD28 (human) [3] = molecular target: CD28 (human) (UniProt P10747); assay: flow cytometry, Jurkat/IL2 reporter cells (CD28)
human CTLA-4 (human) [4] = molecular target: human CTLA-4 (human) (UniProt P16410); assay: flow cytometry, CHO cells expressing huCTLA4
human PD-L1 (human) [5] = molecular target: human PD-L1 (human) (UniProt Q9NZQ7); assay: flow cytometry, CHO cells expressing huPD-L1, vs WT CD80 ECD-Fc (R&D)
Target sequence in this assay (Q9NZQ7 19-290): as above

CD28 (human) [6] = molecular target: CD28 (human) (UniProt P10747); assay: flow cytometry, Jurkat/IL2 reporter cells (CD28), vs WT CD80 ECD-Fc (R&D)
human CTLA-4 (human) [7] = molecular target: human CTLA-4 (human) (UniProt P16410); assay: flow cytometry, CHO cells expressing CTLA4
CD28 (human) [8] = molecular target: CD28 (human) (UniProt P10747); assay: flow cytometry, Jurkat cells (CD28)
human PD-L1 (human) [9] = molecular target: human PD-L1 (human) (UniProt Q9NZQ7); assay: flow cytometry, CHO cells expressing PD-L1
Target sequence in this assay (Q9NZQ7 19-290): as above

human PD-L1 (human) [10] = molecular target: human PD-L1 (human) (UniProt Q9NZQ7); assay: flow cytometry, MFI on PD-L1 over MFI on CD28
Target sequence in this assay (Q9NZQ7 19-290): as above

human PD-L1 (human) [11] = molecular target: human PD-L1 (human) (UniProt Q9NZQ7); assay: flow cytometry; PD-L1 MFI over CD28 MFI of the same protein
Target sequence in this assay (Q9NZQ7 19-290): as above

CD28 (human) [12] = molecular target: CD28 (human) (UniProt P10747)
human PD-L1 (human) [13] = molecular target: human PD-L1 (human) (UniProt Q9NZQ7)
Target sequence in this assay (Q9NZQ7 19-290 limits assumed): as the sequence (Q9NZQ7 19-290) above

human CTLA-4 (human) [14] = molecular target: human CTLA-4 (human) (UniProt P16410); assay: flow cytometry, CHO cells expressing huCTLA-4
human PD-L1 (human) [15] = molecular target: human PD-L1 (human) (UniProt Q9NZQ7); assay: flow cytometry, CHO/huPD-L1 cells; vs WT CD80 ECD-Fc (Abcam)
Target sequence in this assay (Q9NZQ7 19-290): as above

CD28 (human) [16] = molecular target: CD28 (human) (UniProt P10747); assay: flow cytometry, Jurkat cells (CD28); vs WT CD80 ECD-Fc (Abcam)
human CTLA-4 (human) [17] = molecular target: human CTLA-4 (human) (UniProt P16410); assay: flow cytometry, CHO/huCTLA-4 cells; vs WT CD80 ECD-Fc (Abcam)

human CTLA-4 (human), sequence (P16410 36-223): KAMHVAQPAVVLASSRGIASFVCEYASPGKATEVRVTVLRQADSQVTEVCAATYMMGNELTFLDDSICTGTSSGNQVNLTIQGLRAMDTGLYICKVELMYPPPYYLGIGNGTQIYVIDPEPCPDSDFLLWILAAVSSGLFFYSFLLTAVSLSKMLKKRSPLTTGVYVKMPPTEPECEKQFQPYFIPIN

| MFI at 33.3 nM (human PD-L1 (human) [1]) [MFI] | Fold change to WT CD80 (human CTLA-4 (human) [2]) [fold] | MFI at 33.3 nM (CD28 (human) [3]) [MFI] | MFI at 33.3 nM (human CTLA-4 (human) [4]) [MFI] | Fold change to WT CD80 (human PD-L1 (human) [5]) [fold] | Fold change to WT CD80 (CD28 (human) [6]) [fold] | Fold change to WT CD80 (human CTLA-4 (human) [7]) [fold] | MFI at 33.3 nM (human CTLA-4 (human) [7]) [MFI] | Fold change to WT CD80 (CD28 (human) [8]) [fold] | MFI at 33.3 nM (CD28 (human) [8]) [MFI] | Fold change to WT CD80 (human PD-L1 (human) [9]) [fold] | MFI at 33.3 nM (human PD-L1 (human) [9]) [MFI] | Ratio of PDL1:CD28 (human PD-L1 (human) [10]) | Ratio of PDL1:CD28 (human PD-L1 (human) [11]) | IL-2 luciferase reporter, fold increase over WT CD80-IgV-Fc at 5.0 nM (CD28 (human) [12]) [fold] | IL-2 luciferase reporter, fold increase over WT CD80-IgV-Fc at 5.0 nM (human PD-L1 (human) [13]) [fold] | MFI at 33.3 nM (human CTLA-4 (human) [14]) [MFI] | Fold change to WT CD80 (human PD-L1 (human) [15]) [fold] | Fold change to WT CD80 (CD28 (human) [16]) [fold] | Fold change to WT CD80 (human CTLA-4 (human) [17]) [fold] | Binder |
| --- | --- | --- | --- | --- | --- | --- | --- | --- | --- | --- | --- | --- | --- | --- | --- | --- | --- | --- | --- | --- |
| 13000 | 1.59 | 2700 | 249000 | 1.09 | 0.15 |  |  |  |  |  |  |  |  |  |  |  |  |  |  | variant CD80 IgV-Fc E35D/T41S/M43V/M47I/L70M/A71G (Fc fusion) VIHVTKEVKEVATLSCGHNVSVEELAQTRIYWQKDKKMVLSMVSGDINIWPEYKNRTIFDITNNLSIVIMGLRPSDEGTYECVVLKYEKDAFKREHLAEVTLSVKAD |
| 35700 | 1.57 | 4100 | 248000 | 3.01 | 0.23 |  |  |  |  |  |  |  |  |  |  |  |  |  |  | variant CD80 IgV-Fc E35D/M47I/L85Q/D90G (Fc fusion) VIHVTKEVKEVATLSCGHNVSVEELAQTRIYWQKDKKMVLTMMSGDINIWPEYKNRTIFDITNNLSIVILALRPSDEGTYECVVQKYEKGAFKREHLAEVTLSVKAD |
| 12100 |  | 246 |  |  |  |  |  |  |  |  |  |  | 49.1 | 7.4 | 7.4 | 30300 | 94.4 | 0.3 | 0.7 | variant CD80 IgV-Fc E35D/M47V/V68M/L85Q/K89N (Fc fusion) VIHVTKEVKEVATLSCGHNVSVEELAQTRIYWQKDKKMVLTMMSGDVNIWPEYKNRTIFDITNNLSIMILALRPSDEGTYECVVQKYENDAFKREHLAEVTLSVKAD |

Second part, the binder before the results:

| Binder | MFI at 33.3 nM (human PD-L1 (human) [1]) [MFI] | Fold change to WT CD80 (human CTLA-4 (human) [2]) [fold] | MFI at 33.3 nM (CD28 (human) [3]) [MFI] | MFI at 33.3 nM (human CTLA-4 (human) [4]) [MFI] | Fold change to WT CD80 (human PD-L1 (human) [5]) [fold] | Fold change to WT CD80 (CD28 (human) [6]) [fold] | Fold change to WT CD80 (human CTLA-4 (human) [7]) [fold] | MFI at 33.3 nM (human CTLA-4 (human) [7]) [MFI] | Fold change to WT CD80 (CD28 (human) [8]) [fold] | MFI at 33.3 nM (CD28 (human) [8]) [MFI] | Fold change to WT CD80 (human PD-L1 (human) [9]) [fold] | MFI at 33.3 nM (human PD-L1 (human) [9]) [MFI] | Ratio of PDL1:CD28 (human PD-L1 (human) [10]) | Ratio of PDL1:CD28 (human PD-L1 (human) [11]) | IL-2 luciferase reporter, fold increase over WT CD80-IgV-Fc at 5.0 nM (CD28 (human) [12]) [fold] | IL-2 luciferase reporter, fold increase over WT CD80-IgV-Fc at 5.0 nM (human PD-L1 (human) [13]) [fold] | MFI at 33.3 nM (human CTLA-4 (human) [14]) [MFI] | Fold change to WT CD80 (human PD-L1 (human) [15]) [fold] | Fold change to WT CD80 (CD28 (human) [16]) [fold] | Fold change to WT CD80 (human CTLA-4 (human) [17]) [fold] |
| --- | --- | --- | --- | --- | --- | --- | --- | --- | --- | --- | --- | --- | --- | --- | --- | --- | --- | --- | --- | --- |
| variant CD80 IgV-Fc E35D/D46E/M47V/N63D/L85Q (Fc fusion) VIHVTKEVKEVATLSCGHNVSVEELAQTRIYWQKDKKMVLTMMSGEVNIWPEYKNRTIFDITDNLSIVILALRPSDEGTYECVVQKYEKDAFKREHLAEVTLSVKAD | 69800 | 1.74 | 1330 | 274000 | 5.88 | 0.07 |  |  |  |  |  |  |  |  |  |  |  |  |  |  |
| CD80 E35D/M47L/Y53F/V68M/A71G/K93R/E95V IgV-Fc (Fc fusion) VIHVTKEVKEVATLSCGHNVSVEELAQTRIYWQKDKKMVLTMMSGDLNIWPEFKNRTIFDITNNLSIMILGLRPSDEGTYECVVLKYEKDAFRRVHLAEVTLSVKAD |  |  |  |  |  |  | 9.1 | 16000 | 12.2 | 383 | 486 | 25000 | 65.3 |  |  |  |  |  |  |  |
| variant CD80 IgV-Fc E35D/M47V/N48K/V68M/L85Q (Fc fusion) VIHVTKEVKEVATLSCGHNVSVEELAQTRIYWQKDKKMVLTMMSGDVKIWPEYKNRTIFDITNNLSIMILALRPSDEGTYECVVQKYEKDAFKREHLAEVTLSVKAD | 10500 |  | 118 |  |  |  |  |  |  |  |  |  |  | 88.8 | 7.9 | 7.9 | 26100 | 81.9 | 0.2 | 0.6 |
| variant CD80 IgV-Fc E35D/M47I/T62S/L85Q (Fc fusion) VIHVTKEVKEVATLSCGHNVSVEELAQTRIYWQKDKKMVLTMMSGDINIWPEYKNRTIFDISNNLSIVILALRPSDEGTYECVVQKYEKDAFKREHLAEVTLSVKAD | 45000 | 1.91 | 1760 | 301000 | 3.79 | 0.1 |  |  |  |  |  |  |  |  |  |  |  |  |  |  |
